# Measurements as given in paper PMC10085699.
# T1: Sen1-HD (UniProt Q00416 1095-1904)
# T1 sequence: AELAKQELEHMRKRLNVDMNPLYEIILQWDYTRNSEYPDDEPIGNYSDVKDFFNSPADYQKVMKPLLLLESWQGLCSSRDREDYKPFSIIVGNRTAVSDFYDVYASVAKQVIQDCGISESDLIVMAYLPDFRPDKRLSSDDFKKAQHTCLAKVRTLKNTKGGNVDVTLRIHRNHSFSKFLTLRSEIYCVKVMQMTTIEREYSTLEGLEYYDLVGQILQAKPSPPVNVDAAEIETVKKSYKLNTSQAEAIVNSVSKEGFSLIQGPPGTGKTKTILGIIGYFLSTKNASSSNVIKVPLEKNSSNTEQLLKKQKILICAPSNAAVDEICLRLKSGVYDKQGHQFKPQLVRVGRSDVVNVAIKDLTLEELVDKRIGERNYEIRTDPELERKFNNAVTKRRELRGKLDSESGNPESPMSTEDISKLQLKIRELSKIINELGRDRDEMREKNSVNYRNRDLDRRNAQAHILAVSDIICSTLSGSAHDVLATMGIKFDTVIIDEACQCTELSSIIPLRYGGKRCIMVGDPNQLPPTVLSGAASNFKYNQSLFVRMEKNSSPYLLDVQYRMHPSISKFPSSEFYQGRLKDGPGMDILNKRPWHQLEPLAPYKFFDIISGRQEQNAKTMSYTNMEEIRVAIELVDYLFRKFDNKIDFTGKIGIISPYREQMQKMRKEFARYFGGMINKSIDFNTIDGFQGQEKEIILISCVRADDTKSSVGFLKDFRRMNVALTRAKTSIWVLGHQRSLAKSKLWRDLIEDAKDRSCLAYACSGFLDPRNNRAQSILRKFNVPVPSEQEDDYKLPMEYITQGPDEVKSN
# T2: SETX-HD-R/H (Homo sapiens, UniProt Q7Z333 1674-2677, R2136H)
# T2 sequence: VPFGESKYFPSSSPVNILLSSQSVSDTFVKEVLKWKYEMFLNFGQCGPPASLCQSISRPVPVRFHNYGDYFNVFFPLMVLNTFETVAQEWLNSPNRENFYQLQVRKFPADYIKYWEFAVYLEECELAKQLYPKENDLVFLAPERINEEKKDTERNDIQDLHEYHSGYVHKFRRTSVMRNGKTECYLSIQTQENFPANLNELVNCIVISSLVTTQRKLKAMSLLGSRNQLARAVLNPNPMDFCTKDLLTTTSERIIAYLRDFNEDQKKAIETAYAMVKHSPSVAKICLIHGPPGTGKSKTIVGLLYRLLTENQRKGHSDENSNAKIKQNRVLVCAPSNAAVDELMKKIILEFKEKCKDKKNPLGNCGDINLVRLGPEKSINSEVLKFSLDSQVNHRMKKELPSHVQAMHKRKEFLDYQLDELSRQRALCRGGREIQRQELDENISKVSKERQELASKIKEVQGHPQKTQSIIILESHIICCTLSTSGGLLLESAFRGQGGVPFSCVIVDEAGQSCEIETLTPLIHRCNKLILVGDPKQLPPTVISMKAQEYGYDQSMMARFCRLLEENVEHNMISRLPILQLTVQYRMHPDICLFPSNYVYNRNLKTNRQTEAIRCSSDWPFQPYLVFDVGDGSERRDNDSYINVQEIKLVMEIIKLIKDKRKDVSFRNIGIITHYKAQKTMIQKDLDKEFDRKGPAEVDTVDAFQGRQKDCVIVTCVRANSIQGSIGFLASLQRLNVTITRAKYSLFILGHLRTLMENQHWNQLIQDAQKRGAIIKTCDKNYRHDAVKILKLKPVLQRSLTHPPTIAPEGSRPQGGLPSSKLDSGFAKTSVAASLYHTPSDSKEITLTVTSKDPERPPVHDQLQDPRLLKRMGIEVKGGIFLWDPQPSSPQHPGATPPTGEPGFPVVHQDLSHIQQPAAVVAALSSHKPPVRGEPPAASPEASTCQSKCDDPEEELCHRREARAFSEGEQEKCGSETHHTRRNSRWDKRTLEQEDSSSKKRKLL
# B1: ssRNA pRMS678 (61 nt) (ssRNA)
# RNA: UUGUCUUCUCAUAAAUUUAAUCCCCGUACGCUUAUACUCCUUUAACUACCCAGUCUUCCCG
# Legend:
# Sen1-HD = molecular target: T1, Sen1-HD; assay: EMSA
# SETX-HD-R/H = molecular target: T2, SETX-HD-R/H; assay: EMSA
binder,measurement,setting,value
B1,binding result,Sen1-HD,binds
same,binding result,SETX-HD-R/H,binds
